Assay results from patent publication US20180125988.

System: AC1254 (CCD1-BSRS1-AE713)
Sequence (chain, as listed by the source): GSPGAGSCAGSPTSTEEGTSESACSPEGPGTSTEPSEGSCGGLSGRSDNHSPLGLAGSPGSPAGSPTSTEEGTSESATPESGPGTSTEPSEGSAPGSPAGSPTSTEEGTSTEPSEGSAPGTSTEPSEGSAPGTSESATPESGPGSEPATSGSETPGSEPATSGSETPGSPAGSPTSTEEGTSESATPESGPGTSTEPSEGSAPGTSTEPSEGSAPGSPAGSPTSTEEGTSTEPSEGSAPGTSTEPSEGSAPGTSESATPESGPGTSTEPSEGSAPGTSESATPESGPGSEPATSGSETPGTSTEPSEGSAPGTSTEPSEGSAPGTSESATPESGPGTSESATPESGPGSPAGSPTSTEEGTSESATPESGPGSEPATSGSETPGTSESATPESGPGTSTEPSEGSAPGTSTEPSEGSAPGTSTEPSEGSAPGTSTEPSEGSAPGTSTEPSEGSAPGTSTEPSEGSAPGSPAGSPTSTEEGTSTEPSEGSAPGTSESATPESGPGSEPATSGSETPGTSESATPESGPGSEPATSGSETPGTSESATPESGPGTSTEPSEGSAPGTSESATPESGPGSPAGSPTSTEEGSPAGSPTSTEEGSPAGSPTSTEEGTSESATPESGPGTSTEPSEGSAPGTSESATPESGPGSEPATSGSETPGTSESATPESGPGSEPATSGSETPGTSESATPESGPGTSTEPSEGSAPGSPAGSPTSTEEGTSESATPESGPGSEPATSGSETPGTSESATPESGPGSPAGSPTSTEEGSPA

Sequence of recombinant mouse MMP-2 (chain, as listed by the source): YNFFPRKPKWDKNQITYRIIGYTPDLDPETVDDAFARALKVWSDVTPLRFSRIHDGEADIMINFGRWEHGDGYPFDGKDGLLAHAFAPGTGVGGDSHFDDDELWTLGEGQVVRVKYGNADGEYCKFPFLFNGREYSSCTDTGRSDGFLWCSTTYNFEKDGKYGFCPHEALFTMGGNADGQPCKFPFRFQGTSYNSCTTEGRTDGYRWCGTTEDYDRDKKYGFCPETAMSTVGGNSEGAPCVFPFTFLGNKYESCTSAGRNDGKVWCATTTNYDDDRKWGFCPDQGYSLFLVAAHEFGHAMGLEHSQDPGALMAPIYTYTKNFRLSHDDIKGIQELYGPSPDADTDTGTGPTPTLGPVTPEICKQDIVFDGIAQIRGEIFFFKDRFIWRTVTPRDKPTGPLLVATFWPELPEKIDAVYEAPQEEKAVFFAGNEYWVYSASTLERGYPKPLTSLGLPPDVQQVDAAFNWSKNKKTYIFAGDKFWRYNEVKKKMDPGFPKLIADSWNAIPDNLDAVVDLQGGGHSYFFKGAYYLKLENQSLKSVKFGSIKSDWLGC

Substance	proteolytic cleavage at the PCM (SDS-PAGE, C4 RP-HPLC); enzyme:substrate 1:680, 2 h, 37 C	proteolytic cleavage at the PCM (SDS-PAGE, C4 RP-HPLC); enzyme:substrate 1:12.5, 2 h, 37 C
recombinant mouse MMP-2	all proteases tested here cleaved the construct as intended, with varying degree of catalytic efficiency	–
recombinant human u-plasminogen activator (uPA)	–	all proteases tested here cleaved the construct as intended, with varying degree of catalytic efficiency
